B1: VH4/Vκ6-IgG4v1 (antibody)
heavy: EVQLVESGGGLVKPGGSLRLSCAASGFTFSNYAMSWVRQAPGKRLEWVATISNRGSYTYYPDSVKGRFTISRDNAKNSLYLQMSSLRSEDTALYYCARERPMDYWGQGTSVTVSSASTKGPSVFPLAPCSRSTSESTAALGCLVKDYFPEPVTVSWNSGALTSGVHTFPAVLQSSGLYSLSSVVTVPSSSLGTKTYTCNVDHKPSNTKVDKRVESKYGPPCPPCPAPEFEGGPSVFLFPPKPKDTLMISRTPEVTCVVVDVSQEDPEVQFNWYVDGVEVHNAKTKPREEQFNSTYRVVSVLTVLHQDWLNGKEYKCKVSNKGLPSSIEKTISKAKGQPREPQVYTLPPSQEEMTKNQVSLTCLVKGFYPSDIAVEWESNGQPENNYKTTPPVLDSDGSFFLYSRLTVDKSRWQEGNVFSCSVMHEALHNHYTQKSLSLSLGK
light: DIVMTQSPSFLSASVGDRVTITCKASQDVGTAVAWYQQKPGKAPKLLIYWASTRHTGVPDRFTGSGSGTDFTLTISSLQSEDFAVYFCHQHSSNPLTFGQGTKLEIKRTVAAPSVFIFPPSDEQLKSGTASVVCLLNNFYPREAKVQWKVDNALQSGNSQESVTEQDSKDSTYSLSSTLTLSKADYEKHKVYACEVTHQGLSSPVTKSFNRGEC
notes: also called VH4/VK6; V46/VK6-IgG4v1
B2: VH6/Vκ7-IgG4v1 (antibody)
heavy: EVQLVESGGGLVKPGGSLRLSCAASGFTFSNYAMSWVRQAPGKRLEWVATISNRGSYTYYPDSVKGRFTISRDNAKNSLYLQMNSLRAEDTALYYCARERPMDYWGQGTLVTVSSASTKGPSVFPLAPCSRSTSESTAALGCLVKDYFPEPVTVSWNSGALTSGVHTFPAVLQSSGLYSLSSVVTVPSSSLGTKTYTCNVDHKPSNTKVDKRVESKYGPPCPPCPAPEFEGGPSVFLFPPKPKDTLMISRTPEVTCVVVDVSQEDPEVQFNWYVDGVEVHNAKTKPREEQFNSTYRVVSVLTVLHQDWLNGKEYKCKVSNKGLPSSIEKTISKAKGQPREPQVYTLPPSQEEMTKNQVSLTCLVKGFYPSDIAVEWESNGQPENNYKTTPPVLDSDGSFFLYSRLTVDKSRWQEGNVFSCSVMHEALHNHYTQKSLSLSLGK
light: B1 light with V3Q, F10T, T63S, S80A
notes: also called VH6/VK7; VH6/VK7-IgG4v1
B3: VH4/Vκ7 (antibody, V domains shown)
VH: EVQLVESGGGLVKPGGSLRLSCAASGFTFSNYAMSWVRQAPGKRLEWVATISNRGSYTYYPDSVKGRFTISRDNAKNSLYLQMSSLRSEDTALYYCARERPMDYWGQGTSVTVSS
VL: DIQMTQSPSTLSASVGDRVTITCKASQDVGTAVAWYQQKPGKAPKLLIYWASTRHTGVPDRFSGSGSGTDFTLTISSLQAEDFAVYFCHQHSSNPLTFGQGTKLEIK
notes: Redesigned variant; cloned into the appropriate expression vector (IgG4v1 and kappa were used in the first round)
B4: VH7/Vκ7 (antibody, V domains shown)
VH: B3 VH with A40T, G42E, S84N, S88A, S110L
VL: B3 VL
notes: Redesigned variant; cloned into the appropriate expression vector (IgG4v1 and kappa were used in the first round); also called VH7/VκK7
B5: VH6/Vκ6 (antibody, V domains shown)
VH: B3 VH with S84N, S88A, S110L
VL: B3 VL with Q3V, T10F, S63T, A80S
notes: as for B3
B6: VH5/Vκ0 (antibody, V domains shown)
VH: B3 VH with A40T, G42E
VL: DIVMTQSHKFMSTSVGDRVSITCKASQDVGTAVAWYQQKPGQSPKLLIYWASTRHTGVPDRFTGSGSGTDFTLTITNVQSEDLAVYFCHQHSSNPLTFGAGTKLELK
notes: Control antibody of the redesign round; cloned into the appropriate expression vector (IgG4v1 and kappa were used in the first round), HEK EBNA supernatant
B7: VH6/Vκ0 (antibody, V domains shown)
VH: B3 VH with S84N, S88A, S110L
VL: B6 VL
notes: as for B6
B8: VH7/Vκ0 (antibody, V domains shown)
VH: B3 VH with A40T, G42E, S84N, S88A, S110L
VL: B6 VL
notes: as for B6
B9: Anti-factor Bb mouse monoclonal antibody (antibody, V domains shown)
VH: B3 VH with G10A, R19K, A40T, G42E, S78T
VL: B6 VL
notes: Mouse monoclonal antibody from a hybridoma; also called murine parental antibody; parent anti-factor Bb antibody

Where a chain is given by its changes, count along the chain named.

Experimental findings from patent US20210332115A1 (Sanofi, published 2021) are described below.

For one test, the target named is T1, Homo sapiens factor Bb protein (human, UniProt P00751 260-764).
T1 construct: Bought from CompTech (A155); also called complement factor Bb; human factor Bb
T1 sequence (P00751 260-764 limits assumed): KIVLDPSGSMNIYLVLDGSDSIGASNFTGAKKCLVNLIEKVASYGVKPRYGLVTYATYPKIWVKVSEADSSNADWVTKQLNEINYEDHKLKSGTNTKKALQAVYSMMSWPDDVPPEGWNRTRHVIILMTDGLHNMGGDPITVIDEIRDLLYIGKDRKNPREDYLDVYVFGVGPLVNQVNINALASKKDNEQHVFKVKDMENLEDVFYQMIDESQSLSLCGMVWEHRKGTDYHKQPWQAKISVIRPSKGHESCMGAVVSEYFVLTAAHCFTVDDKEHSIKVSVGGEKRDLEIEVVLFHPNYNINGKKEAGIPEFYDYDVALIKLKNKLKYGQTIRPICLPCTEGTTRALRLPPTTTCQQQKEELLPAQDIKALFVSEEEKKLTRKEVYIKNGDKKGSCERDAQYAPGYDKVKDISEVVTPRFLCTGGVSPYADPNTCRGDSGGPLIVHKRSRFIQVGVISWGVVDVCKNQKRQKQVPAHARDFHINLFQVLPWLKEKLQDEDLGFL
Description: SPR multi-cycle kinetics, IgG on Protein A chip, factor Bb analyte. On the procedure:
(§1) Antibodies were diluted in running buffer to a final concentration of 0.5 μg/ml. At the start of each cycle, antibodies were loaded onto Fc2, Fc3 and Fc4 of the Protein A chip (GE Healthcare, Little Chalfont, UK). IgGs were captured at a flow rate of 10 μl/min to give an immobilisation level (RL) of ˜63 RU, the theoretical value to obtain an Rmax of ˜50 RU. The surface was then allowed to stabilize. Kinetic data was obtained with factor Bb as analyte and using a flow rate of 30 μl/min to minimize any potential mass transfer effects. Multiple repeats of a blank and a repeat of a single concentration of the analyte were programmed into the kinetic run in order to check the stability of both the surface and analyte over the kinetic cycles. For kinetic analysis, a two-fold dilution range was selected from 12. 5 nM to 0. 391 nM factor Bb. The association phase of factor Bb was monitored for 360 seconds and the dissociation phase was monitored for 600 seconds. Regeneration of the Protein A surface was conducted using two injections of 10 mM glycine-HCL pH 1. 5. The signal from the reference channel Fc1 was subtracted from that of Fc2, Fc3 and Fc4 to correct for differences in non-specific binding to a reference surface, and a global Rmax parameter was used in the 1-to-1 binding model.
(§2) The sensorgrams and fitted data for the binding of chimeric antibodies and humanized variants to factor Bb are shown in FIGS. 4A-4C. The relative KD was calculated by dividing the KD of the humanized variants by that of the chimeric antibody on the same chip. The kinetic parameters measured for the interaction of factor Bb with chimeric antibodies and humanized variants are shown in Table 10.
Usually Kd stands for the equilibrium constant for the complex coming apart. Broadly, the koff is the first-order rate constant of dissociation. A high value points to a short-lived complex. Broadly, the kon is a measure of how fast the partners come together. Low values mean slow association, high ones fast association. Take B1: the affinity, expressed as Kd, was 2.14 nM; the koff is 0.000805 s⁻¹; the kon is 376000 M⁻¹ s⁻¹.

As for B2, binding was characterised by a dissociation constant (Kd) of 5.7 nM, the koff was 0.00124 s⁻¹ and the kon came out at 218000 M⁻¹ s⁻¹.

Take B3: the Kd stood at 2.61 nM, the off-rate constant (koff) came out at 0.000841 s⁻¹ and the kon worked out at 322000 M⁻¹ s⁻¹.

B4 displayed a Kd of 9.51 nM, a koff of 0.00211 s⁻¹ and a kon of 222000 M⁻¹ s⁻¹.

B5 registered a Kd of 5.17 nM, a koff of 0.0013 s⁻¹ and a kon of 251000 M⁻¹ s⁻¹.

In the next test the target is T1, Homo sapiens factor Bb protein. Description: cell-based or functional assay.
For the molecule B1, the “AP Assay IC50” value was determined as 22 nM.

Take B2: the “AP Assay IC50” value was determined as 21 nM.

On to B3, for which the “AP Assay IC50” value worked out at 23 nM.

For the molecule B4, the “AP Assay IC50” value amounted to 25 nM.

Consider B5, for which the “AP Assay IC50” value amounted to 19 nM.

A further test shares this target. Put plainly: SPR multi-cycle kinetics; ratio against VH0/Vκ0 on the same chip. Here is the method: as §1, §2
B1: the “Relative KD” value amounted to 1.08.

As for B2, the “Relative KD” value turned out to be 2.98.

On to B3, for which the “Relative KD” value was determined as 1.31.

B4: the “Relative KD” value was determined as 5.01.

On to B5, for which the “Relative KD” value was 2.71.

The target is the same in a further test. Put plainly: competition ELISA on coated factor Bb; competitor murine parental antibody. Here is the method:
Factor Bb was diluted in 1× PBS to 1.0 μg/ml and 100 μl/well was coated overnight at 4° C. on a 96-well ELISA plate. The following day the plates were blocked for two hours at room temperature with 1% casein/PBS before washing 2× with PBS pH 7.4. In a 96-well dilution plate a fixed concentration of murine parental antibody (0.5 μg/ml, final concentration) was added in equal volume to a four-fold titration series of test antibody (starting from 45 μg/ml to 0.01 μg/ml, final concentration) diluted in blocking buffer. After washing the plate 3× with PBS-T, 100 μl of chimeric/test antibody mix was added to the ELISA plate. After incubating at room temperature for one hour, the plate was washed 3× with PBS-T and 100 μl of anti-mouse IgG Fc-Specific HRP (Sigma, Dorset, UK) diluted 1:1000 in PBS-T was applied for one hour at room temperature to detect bound mouse antibody. For color development, the plate was washed 3× with PBS-T following which 100 μl of TMB substrate was added and incubated for approximately five minutes at room temperature. The reaction was stopped with 50 μl of 3.0 M hydrochloric acid and absorbance was read immediately using a DYNEX ® plate reader at 450 nm.
IC50 values were calculated for each variant and relative IC50 values were calculated by dividing the IC50 of the humanized variant by that of the chimeric antibody assayed on the same plate (Table 11).
On the technique in general: In an ELISA, binding on a coated surface is turned into a signal by an enzyme label.
Usually IC50 stands for the concentration that inhibits the measured activity by half. Take B1: the IC50 stood at 1.02 nM.

Turning to B2, the IC50 is 0.82 nM.

B3: the concentration for half-maximal inhibition (IC50) was 0.75 nM.

Consider B4, for which the half-inhibitory concentration (IC50) came out at 1.43 nM.

On to B5, for which the IC50 is 0.93 nM.

For a further test the target is unchanged. Description: SPR single cycle kinetics, IgG on Protein A chip, factor Bb analyte. On the procedure: In order to assess the binding of all humanized variants, single cycle kinetic analysis was performed on supernatants from transfected cell cultures. […] All single cycle kinetic experiments were run at 25° C. with HBS-P+running buffer (pH 7. 4) (GE Healthcare, Little Chalfont, UK).
(§3) Antibodies were diluted in running buffer to a final concentration of 1 μg/ml, based on concentrations assessed by ELISA titer. At the start of each cycle, antibodies were loaded onto Fc2, Fc3 and Fc4 of the Protein A chip (GE Healthcare, Little Chalfont, UK). IgGs were captured at a flow rate of 10 μl/min to give an immobilization level (RL) of ˜63 RU, the theoretical value to obtain an Rmax of ˜50 RU. The surface was then allowed to stabilize. Single cycle kinetic data was obtained with factor Bb (CompTech, Tyler, USA) as the analyte at a flow rate of 30 μl/min to minimize any potential mass transport limitations. Multiple repeats with the reference chimeric antibody were performed to check the stability of the surface and analyte over the kinetic cycles. The signal from the reference channel Fc1 (no antibody) was subtracted from that of Fc2, Fc3 and Fc4 to correct for differences in non-specific binding to a reference surface. A four point, two-fold dilution range from 0. 78 nM to 6. 25 nM factor Bb without regeneration between each concentration was used. The association phase for the four injections of increasing concentrations of factor Bb was monitored for 200 seconds each time and a single dissociation phase was measured for 200 seconds following the last injection of factor Bb. Regeneration of the Protein A surface was conducted using two injections of 10 mM glycine-HCL pH 1. 5.
Single cycle kinetics using cell culture supernatants were performed as described above.
B1 came in with a Kd of 2.22 nM, a koff of 0.000859 s⁻¹ and an association rate constant (kon) of 387000 M⁻¹ s⁻¹.

B2 yielded a dissociation constant (Kd) of 3.51 nM, an off-rate (koff) of 0.00221 s⁻¹ and a kon of 630000 M⁻¹ s⁻¹.

Regarding B3, the affinity, expressed as Kd, was 2.34 nM; the koff came to 0.000903 s⁻¹; the kon was 386000 M⁻¹ s⁻¹.

Take B6: the affinity, expressed as Kd, was 416 nM; the koff worked out at 0.00145 s⁻¹; the kon turned out to be 3490 M⁻¹ s⁻¹.

B7 had a dissociation constant Kd of 3.29 nM, a dissociation rate constant (koff) of 0.00197 s⁻¹ and an on-rate (kon) of 598000 M⁻¹ s⁻¹.

Consider B8, for which the affinity, expressed as Kd, was 7.53 nM; the koff was 0.00207 s⁻¹; the kon was 274000 M⁻¹ s⁻¹.

Take B4: the dissociation constant Kd amounted to 2.42 nM, the dissociation rate constant (koff) stood at 0.0117 s⁻¹ and the on-rate constant (kon) is 4.83e+06 M⁻¹ s⁻¹.

B5 yielded a Kd of 3.84 nM, an off-rate constant (koff) of 0.00158 s⁻¹ and a kon of 412000 M⁻¹ s⁻¹.

The next test shares this target. Put plainly: BLI Octet, biotinylated antibody on SA biosensors. Here is the method:
(§4) Briefly, biotinylated antibodies were loaded onto SA Biosensors equilibrated in PBS, 0.1% BSA, 0.02% Tween-20 (assay buffer). After a 60 second baseline in assay buffer, antibodies were loaded onto the probes for 180 seconds, followed by another 60 second baseline. Association to human (Comptech) or cynomolgus monkey factor Bb (purified in-house) was measured for 300 seconds, followed by a 300 second dissociation. Kinetic parameters were calculated by the Octet Analysis software using a 1:1 binding model.
On to B1, for which the Kd worked out at 1.6 nM.

In turn, B2 displayed a Kd of 1.9 nM.

B3 displayed a Kd of 1.9 nM.

The molecule B9 yielded a dissociation constant (Kd) of 1.9 nM.

B4 registered a Kd of 2.9 nM.

For B5, the Kd amounted to 1.9 nM.

For a further test the target is unchanged. Put plainly: SPR single cycle kinetics; ratio against VH0/Vκ0. Here is the method:
All single cycle kinetic experiments were run at 25° C. with HBS-P+running buffer (pH 7. 4) (GE Healthcare, Little Chalfont, UK).
as §3
Single cycle kinetics using cell culture supernatants were performed as described above. […] The relative KD was calculated by dividing the KD of the VH0/Vκ0 reference antibody by that of the humanized variant assayed in the same experiment.
Consider B1, for which the “Relative KD” value stood at 1.25.

As for B2, the “Relative KD” value was 1.98.

Consider B3, for which the “Relative KD” value amounted to 1.32.

Turning to B6, the “Relative KD” value was 235.

As for B7, the “Relative KD” value was 1.86.

In the case of B8, the “Relative KD” value is 4.25.

B4: the “Relative KD” value is 1.37.

For B5, the “Relative KD” value came to 2.17.

For a further test the target is unchanged. Put plainly: BLI Octet, biotinylated antibody on SA biosensors. The source holds these as a separate data set. Here is the method:
as §4
To determine whether the modification of the Fc portion of the antibodies affected affinity and species cross-reactivity, VH4/VK6-IgG4v2 and VH6/VK7-IgG4v2 were tested alongside their parental antibodies, VH4/VK6 and VH6/VK7, respectively, for their ability to bind human and cynomolgus monkey factor Bb by BLI. VH4/VK6-IgG4v2 and VH6/VK7-IgG4v2 contain mutations in the Fc region that increase the affinity for an Fc receptor.
For B1, the Kd was found to be 1.6 nM.

Take B2: the affinity, expressed as Kd, was 1.7 nM.
